From patent US20140066321A1 (PANGU BIOPHARMA, published 2014) come the findings set out here.

Series [1] deals with the molecule itself. Kind of series: X-ray crystal structure at 2.4 Å (self-association, homodimer). The protocol:
To set up a […], 1 μl of protein sample was mixed with 1 μl of crystallization solution with 0.2 M ammonium citrate. […] Before diffraction experiments, crystals were soaked in crystallization solution containing […] for cryoprotection. […] Specifically, crystals were soaked in crystallization solution containing 10-20% glycerol for 5-10 mins. The diffraction data were collected at the Shanghai Synchrotron Radiation Facility and were processed and scaled using HKL2000.
The phase was improved by density modifications with RESOLVE. The initial model was built in COOT. […] The models were refined in Refmac5 and PHENIX. […] All structure figures were prepared by PyMOL

Series [2] deals with the molecule itself. Description: size exclusion chromatography (self-association, homodimer). As for the experimental part:
The cDNA encoding native human cytoplasmic HRS and the splice variant HRSΔCD were cloned into a modified pET32 vector and fused to the N-terminal thioredoxin-His₆-tags. The fusion proteins were expressed in E. coli BL21(DE3) and first purified by Ni²⁺-NTA affinity chromatography Next, the thioredoxin-His₆-tag was removed by protease-3C digestion. The cleaved protein mixtures were further separated by a size-exclusion chromatography in a buffer containing 50 mM Tris (pH 7.5), 100 mM NaCl, 1 mM EDTA and 1 mM […] Native HRS and HRSΔCD mutants were created using the standard PCR-based mutagenesis method. The mutant proteins were purified using a protocol identical to that used for native HRS and HRSΔCD. Analytical gel filtration chromatography was carried out on an AKTA FPLC system (GE Healthcare). Proteins were loaded onto a Superose 12 10/300 GL column (GE Healthcare) equilibrated with a buffer containing 50 mM Tris (pH 7.5), 100 mM NaCl, […] EDTA and 1 mM […].

B1: human HRS variant with deletion of residues 1-53 and residues 507-509 (HRS Δ1-53-Δ507-509) (enzyme)
chain: FVLKTPKGTRDYSPRQMAVREKVFDVIIRCFKRHGAEVIDTPVFELKETLMGKYGEDSKLIYDLKDQGGELLSLRYDLTVPFARYLAMNKLTNIKRYHIAKVYRRDNPAMTRGRYREFYQCDFDIAGNFDPMIPDAECLKIMCEILSSLQIGDFLVKVNDRRILDGMFAICGVSDSKFRTICSSVDKLDKVSWEEVKNEMVGEKGLAPEVADRIGDYVQQHGGVSLVEQLLQDPKLSQNKQALEGLGDLKLLFEYLTLFGIDDKISFDLSLARGLDYYTGVIYEAVLLQTPAQAGEEPLGVGSVAAGGRYDGLVGMFDPKGRKVPCVGLSIGVERIFSIVEQRLEALEEKIRTTETQVLVASAQKKLLEERLKLVSELWDAGIKAELLYKKNPKLLNQLQYCEEAGIPLVAIIGEQELKDGVIKLRSVTSREEVDVRREDLVEEIKRRTGQPL
notes: the row under measurements tells of its self-association into a dimer in the crystal structure
Regarding B1, the binding result in series [1] was “binds”.

B2: human HRS variant with deletion of residues 507-509 (HRS Δ507-509) (enzyme)
chain: MAERAALEELVKLQGERVRGLKQQKASAELIEEEVAKLLKLKAQLGPDESKQKFVLKTPKGTRDYSPRQMAVREKVFDVIIRCFKRHGAEVIDTPVFELKETLMGKYGEDSKLIYDLKDQGGELLSLRYDLTVPFARYLAMNKLTNIKRYHIAKVYRRDNPAMTRGRYREFYQCDFDIAGNFDPMIPDAECLKIMCEILSSLQIGDFLVKVNDRRILDGMFAICGVSDSKFRTICSSVDKLDKVSWEEVKNEMVGEKGLAPEVADRIGDYVQQHGGVSLVEQLLQDPKLSQNKQALEGLGDLKLLFEYLTLFGIDDKISFDLSLARGLDYYTGVIYEAVLLQTPAQAGEEPLGVGSVAAGGRYDGLVGMFDPKGRKVPCVGLSIGVERIFSIVEQRLEALEEKIRTTETQVLVASAQKKLLEERLKLVSELWDAGIKAELLYKKNPKLLNQLQYCEEAGIPLVAIIGEQELKDGVIKLRSVTSREEVDVRREDLVEEIKRRTGQPL
notes: the row under measurements tells of its self-association into a dimer (size exclusion chromatography)
Regarding B2, in series [2], the binding result is “binds”.
